T1: N30 mutant MUC16-C114-GFP fusion protein expressed on HEK293 cells (HEK293-MUC16mut) (human)
T1 construct: The GFP signal of this line was weaker than that of the WT line (26x against 170x MFI increase); also called MUC16c114 N30A; not shown: GFP fusion partner
T1 chain: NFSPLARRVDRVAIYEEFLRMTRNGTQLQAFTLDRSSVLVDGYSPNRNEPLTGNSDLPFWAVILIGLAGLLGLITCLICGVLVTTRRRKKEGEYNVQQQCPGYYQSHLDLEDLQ

T2: wildtype MUC16-C114-GFP fusion protein expressed on HEK293 cells (HEK293-MUC16WT) (human)
T2 construct: not shown: GFP fusion partner
T2 chain: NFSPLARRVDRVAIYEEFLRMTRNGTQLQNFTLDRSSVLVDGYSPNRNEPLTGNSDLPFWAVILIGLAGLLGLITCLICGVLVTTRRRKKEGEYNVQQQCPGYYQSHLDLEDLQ


Legend:
[1] = target: T1, N30 mutant MUC16-C114-GFP fusion …; assay: FACS, scFv phage on HEK293-MUC16mut cells
Protocol: (§1) 540 phage clones identified from the cell panning were then tested by FACS analysis for binding to HEK293-MUC16WT cells. Briefly, 0.2 million cells (in PBS+5% FBS+0.05% NaN₃) were incubated for 2 h at 4° C. with 50 μl of ˜[…] pfu/mL phage in PBS. FACS was carried out using primary antibody mouse anti-M13 mAb (Thermo #MAI-12900) and secondary antibody PE anti-mouse IgG (Vectors Lab #EI-2007).
(§2) The 40 MUC16 specific clones were tested for their binding to HEK293-MUC16WT. HEK293-MUC16mut, and parental HEK293 cells. […] These clones were thus specific for the N-glycosylation site (N30).

[2] = target: T2, wildtype MUC16-C114-GFP fusion protein …; assay: FACS, scFv phage on HEK293-MUC16WT cells (FIG. 5)
Protocol: as §1, §2

[3] = target: T3, human MUC16 as expressed on MUC16+ cancer cell lines (OVCAR3, SKOV8, OVCA432) (human); assay: FACS on MUC16+ OVCAR3 cells, BsAb followed by a secondary antibody, against secondary antibody alone
T3 construct: This is endogenous MUC16 on ovarian cancer cell lines; also called hMUC16; Mucin-16
Protocol: In this example, the specificity of the anti-MUC16 BsAbs for binding to cancer cells that express MUC16 was assessed. In one study, two target cell lines were employed, a MUC16⁺ OVCAR3 cell line and a MUC16 SKOV3 cell line. OVCAR3 and SKOV3 cell lines were obtained through the American Type Culture Collection (ATCC®, Manassas, VA) and sustained in culture according to the ATCC® literature. FACS analysis of anti-MUC16 antibody binding to the two target cell lines was performed to confirm that antibody binding was observed only with the MUC16+ OVCAR3 cell line. SKOV3 or OVCAR3 cell lines were incubated with the anti-MUC16 Ab followed by a secondary antibody or with a secondary antibody alone as a control.

Row | Binder | binding result [1] | binding result [2] | MFI increase in binding over the control cells [3]
1 | anti-MUC16 clone 12 scFv antibody phage clone (scFv, The phage coat fusion is not described) scFv: NFMLTQPHSVSESPGKTVTISCTRSRGSIASAYVQWYQQRPGSAPITVIYEDYERPSEIPDRFSGSIDSSSNSASLTISGLKTEDEADYYCQSYDDNDHVIFGGGTKVTVLGSRGGGGSGGGGSGGGGSLEMAQVQLQQWGAGLLKPSETLSLTCAVYGGSFSGYYWSWIRQPPGKGLEWIGEINHSGSTNYNPSLKSRIIMSVDTSKRQFSLKLRSATAADTAVYYCARWSPFSYKQMYDYWGQGTLVTVSS | no binding | binds | 
2 | anti-MUC16 clone 8 BsAb (Clone 8/anti-CD3 bispecific antibody) (bispecific antibody, It was secreted from CHO cells; also called clone 8 bispecific antibody; anti-MUC16 clone & BsAb) DIQLTQSPSAVSASVGDRVTITCRASQDVSKWLAWYQQKPGKAPRLLISAASGLQSWVPSRFSGSGSGTEFTLSISSLQPEDFATYYCQQANSFPWTFGQGTKVEIKRSRGGGGSGGGGSGGGGSLEMAQVQLQQWGAGLLKPSETLSLTCAVYGGSFSGYYWSWIRQPPGKGLEWIGEINHSGSTNYNPSLKSRVTISVDTSKNQFSLKLSSVTAADTAVYYCARQSYITDSWGQGTLVTVSSTSGGGGSDVQLVQSGAEVKKPGASVKVSCKASGYTFTRYTMHWVRQAPGQGLEWIGYINPSRGYTNYADSVKGRFTITTDKSTSTAYMELSSLRSEDTATYYCARYYDDHYCLDYWGQGTTVTVSSGEGTSTGSGGSGGSGGADDIVLTQSPATLSLSPGERATLSCRASQSVSYMNWYQQKPGKAPKRWIYDTSKVASGVPARFSGSGSGTDYSLTINSLEAEDAATYYCQQWSSNPLTFGGGTKVEIKHHHHHH |  |  | ~300 × (fold MFI)
3 | anti-MUC16 clone 8 scFv antibody phage clone (scFv, The phage coat fusion is not described) scFv: DIQLTQSPSAVSASVGDRVTITCRASQDVSKWLAWYQQKPGKAPRLLISAASGLQSWVPSRFSGSGSGTEFTLSISSLQPEDFATYYCQQANSFPWTFGQGTKVEIKRSRGGGGSGGGGSGGGGSLEMAQVQLQQWGAGLLKPSETLSLTCAVYGGSFSGYYWSWIRQPPGKGLEWIGEINHSGSTNYNPSLKSRVTISVDTSKNQFSLKLSSVTAADTAVYYCARQSYITDSWGQGTLVTVSS | no binding | binds | 
